Assay: soluble on expression in E. coli; label from the status in PepcDB or PDB records

Sequence	soluble on expression in E. coli
MNLMLCCTPLQVLIARKIIELHPNEQFFGVMFGGVWDKKRTLYASKLAEVCSDSMNIDTGKDLKGFDFLKLMRQLKNKITHKGFDKVFLANLNSLWLQTYLSHVSFKELYTFDDGSDNIFPHPNLLREPGTFKYKLIKAFIGDKYSVNKLFKKIKKHYTVYPNYKNIVSNIEPISLWDNQIDCEIDGEVSFFIGQPLLNTKEENISLIKKLKDQIPFDYYFPHPAEDYRVDGVNYVESELIFEDYVFKHLSNKKLFIRSSVLLHLIYVILMKSVLLERVFQDGNSVTIHFQTLDRFIRKFLEHHHHHH	not soluble
MNLPEVSEKLIEQLNHGSTKAFDKIYHTYYLYLCAIAVYYVHDKRVAGEIVNDVFVSFWQNRHHITYPALPYLRRAIQNASISYLRSSAFNERIMTEQMEEIWAFLENHILSSDNPLQALESSEMNEIILRKVEELPAKCRAVFKASLYEGKSYSEIAEEQNINVATVRVQMKIALTKLRESLGTPYMIAILMFL	not soluble
MNLRNGWNIEFQKNIHMYCHRLIATKGDKHYEVPCEDTPAGFVGIWLYGLELDEMTLSDLQAGLVEWAESSGCTYRIYNTRGVYLTNEPHVQADA	not soluble
MNLSLHYNLDNRNAMKPHTLVKRSSSQVTDQAVEVIHERIQQGFYPVGSALPSQRELSAELGISRASLREALTRLAALGLLNIMAGKGAYVTAIESQPVEQWNIQFKISLKDFYQLRYILEGFSALLACEYISENDLVQLNTHFEQLESAIQQHNWQEAAENDFAFHRHIIDLSHNQSIIQSLKKQTEWMKQSQILPFVQPNLAYKTIQEHEQILQALIKRDGLMAEKAMRQHIIGAAQRAGVYFSSHS	not soluble
MNLVETAQAIKTGKVSLGIELGSTRIKAVLITDDFNTIASGSYVWENQFVDGTWTYALEDVWTGIQQSYTQLAADVRSKYHMSLKHINAIGISAMMHGYLAFDQQAKLLVPFRTWRNNITGQAADELTELFDFNIPQRWSIAHLYQAILNNEAHVKQVDFITTLAGYVTWKLSGEKVLGIGDASGVFPIDETTDTYNQTMLTKFSQLDKVKPYSWDIRHILPRVLPAGAIAGKLTAAGASLLDQSGTLDAGSVIAPPEGDAGTGMVGTNSVRKRTGNISVGTSAFSMNVLDKPLSKVYRDIDIVMTPDGSPVAMVHVNNCSSDINAWATIFHEFAARLGMELKPDRLYETLFLESTRADADAGGLANYSYQSGENITKIQAGRPLFVRTPNSKFSLPNFMLTQLYAAFAPLQLGMDILVNEEHVQTDVMIAQGGLFRTPVIGQQVLANALNIPITVMSTAGEGGPWGMAVLANFACRQTAMNLEDFLDQEVFKEPESMTLSPEPERVAGYREFIQRYQAGLPVEAAAGQAIKYLEHHHHHH	soluble
MNMKPESKEAPINIRAKASQRDLIDMAANLVAKSRTDFMLDAACREAQDILLDQRLFILDDEQYDAFLAALDAPITAERQAKINALMNRKSPWE	soluble
MNNDVTRILKDARDQGRLTALDYAELIFDNFMELHGDRQFADDKSIIGGLGYLAGRPVTIVGIQKGKNLQDNLDRHFGQPHPEGYRKALRLMKQAEKFGRPVITFINTAGAYPGVGAEERGQGEAIARNLLEMSDLKVPIIAIIIGEGGSGGALALAVADKVWMLEHTVYSILSPEGFASILWKDGTRTTEAAQLMKMTAGELYHMEVVDKVIPEHGYFSSEIVDMIKTSLISELEVLSQLSLEDLLEQRYQRFRKY	not soluble
MNNETSGSRDMILKHFDSTQNNQNSVKLEHESSDNNESSGSQNFVFNFLMSQLQNMGPVEIKQEVEAKMLDDIEDEYTDNNYNEGYSKMDTDGDLEWEEEFKKLNKDPSKMDKREQERHRQMAKNREYARKCVQKKKDQRKHAEIRSNQIKKRIQLLKNKTAIKEKNANFAVDLRKMMSEIGVERLKLEYENEKMELNKKFAEMFAQDETVNLNFHRLASAREEFEKAAEDLRLKNGVIGTLGSRKIRAKQQMEWRQHLYQISAHEHEHHRETKLAELADEYVKQTVPKAAPLVTSIPKDMLDQLIKNNKTLDLEELCRFVADNLCLLQNDNDDKESVVK	not soluble
MNNGEGEVMDLRDIDLNLLVVFNQLLLDRSVSTAGEKLGLTQPAVSNSLKRLRTALNDDLFLRTSKGMEPTPYALHLAEPVIYALNTLQTALTTRDSFDPFASTRTFNLAMTDIGEMYFMPPLMEALAQRAPHIQISTLRPNAGNLSEDMESGAVDLALGLLPELQTGFFQRRLFRHRYVCMFRKDHPSAKSPMSLKQFSELEHVGVVALNTGHGEVDGLLERAGIKRRMRLVVPHFIAIGPILHSTDLIATVPERFAVRCEVPFGLTTSPHPAKLPDIAINLFWHAKYNRDPGNMWLRQLFVELFSEAHHHHHH	soluble
MNNIDQLYTETKSMLSHIQNTPESDELLKQIEDFVATRSELIQEISLPLSEEERKQMKLILTWDQLIVKEMERLKQSIATELQQMKRKRVMHTTYLNPYNNITIDGTYYDKRKLEHHHHHH	soluble
MNNLISQDKRISSNPVAKIIYGDPVTFLPHLPRKSVVHCSKIWSCRKRITVEYLQHIVEQKNGKERVPILWHFLQKEAELRLVKFLPEILALQRDLVKQFQNVQQVEYSSIRGFLSKHSSDGLRQLLHNRITVFLSTWNKLRRSLETNGEINLPKDYCSTDLDLDTEFEILLPRRRGLGLCATALVSYLIRLHNEIVYAVEKLSKENNSYSVDAAEVTELHVISYEVERDLTPLILSNCQYQVEEGRETVQEFDLEKIQRQIVSRFLQGKPRLSLKGIPTLVYRHDWNYEHLFMDIKNKMAQDSLPSSVISAISGQLQSYSDACEVLSVVEVTLGFLSTAGGDPNMQLNVYTQDILQMGDQTIHVLKALNRCQLKHTIALWQFLSAHKSEQLLRLHKEPFGEISSRYKADLSPENAKLLSTFLNQTGLDAFLLELHEMIILKLKNPQTQTEERFRPQWSLRDTLVSYMQTKESEILPEMASQFPEEILLASCVSVWKTAAVLKWNREMR	not soluble
MNNLLRCHQVCKTYQEGELQTQVLKGVSFELKRGELVSIIGSSGSGKSTLLHILGALDDASEGQVEFLGQSLHQLSSNKQAKIRNQHLGFVYQFHHLLADFSALENVAMPLLIGGMNVAKAKAKAQSLLERVGLGHRVAHRPSELSGGERQRVAIARALVNKPDLVLADEPTGNLDHKTALSIYDLMRELNRESGTAFLVVTHDGELAAKMDRHMHMKDGLLTDITGA	not soluble
MNNPKAISKQTLLRLPSYLSYLKSLPKQDGEYVSATMIASALGLNDVQVRKDLACVSKKGRPKLGYVAEELIRDIESFLGYDSLNDAIIVGAGRLGGALLSYEGFKEYGLNIVAAFDIDESKIGTEICGRKIFPLDKMKELCRRMKIRIGIITVPADSAQKVCDMLVDSGIYAIWNFAPVHLKVPDNILVQQENMAASLAVLSAHLAEAIKNNGIGKGDEENDENSE	not soluble
MNNPVVLDSKTELNEQTAQDVRLQLRQDADVQRIYNAVDIKDQLELIELGKEPSMEISRFADQILHTMSLSKIEDSGELLKQLGKIMDRFDSKDFAEEKSGFFSRMFKKADKMIEQIFSKYQTMGREIDKVYVEITKYQDEMKKSIGTLDGLYEQNLKYYLDLEKYVVAGEMLLERLNTELVPMYEERVRNNDQLAGIELESLKNSVEILEQRIDDLEKARMVALLTAPQIRMIQRGNNKLIGKINTAFITTIPIFKNGIIQAVNAKRQKLVADSMAELDRRTNELLKKNAQNIATQSVEVARLSGSSSIKMETLEETWNIISRGMQETQQIEEQNKREREESRKRMATLTENIKKELQG	not soluble
MNNVLILLDNPDDWKPYCETKSILTVSDYLKNKPVEKDRKLVINLSNDYSYNSEGYYCSLLAQTRGQRVIPDVDIINKLETGTGIRMDRSLQALCYQWIQKNGIKSDIWYLNIYFGKCREKGLERVARFIFENYPCPLLRVALNTHPKNQIESIQFLPLNRLDDEEQDFFANTLDNFNKKIWRAPKSAKAPRYSLAVLIDPKEKFPPSNKGALHKLSEVAKKMNIHVEMITEDDAMRLLEFDALFIRTTTSLNHYTFHLSQLAAQNGMVVIDDPLSIIRCTNKVYLKELFEKERIPAPKSTLIFQSNENSFEQISEQVGAPFILKIPDGSYSIGMKKVSNEEELKTSLELLFEKSAILLAQAFTPTEFDWRVGLLNGVPLYACKYYMAKGHWQIYCHYDSGRSRCGLVDTIPIYQVPRVVLDTAIKAANLIGKGLYGVDLKMVDDKAYVIEINDNPSIDHELEDAIIGDEMYYRLLNHFEQALEMKHY	not soluble
MNPAPERTVMQHVRPLPYEADFTGFLSNTVAPRWMEALRIQRMRTCFPHFDSGAPQHLCIITETTVRYRKPVRYSDAIVGKAWLQSARYSRWIIAFSFAFEFSGLPAFEGRQAGTFIDPLEHHHHHH	not soluble
MNPDHKEIIMNHIGLFALTAAALLAGCSSNTQQDNYREASFELCNTEVNIYSVSDDGQVRIVCADGAKFALKTEKTLDIMRDINVDYCDGEGLGKFTESNKYYMFKCKSGTMISVSK	not soluble
MNPDNLAKLIDELSAMFHPTERDRPHGRWVEAPKSAPPSKRRRSKTAYQLKITLNGIRPPIWRRVLVPGHATFHELHLIIQEAMGWEQAHLYEFDFGSVLIGIPDGWDSFQLEKELMDARRIPLQQWLTEEKQKFLYIYDFGDYWRHTVTVEKIETLPKPLERAACLKGKRACPPEDCGGVYGYLELLEAAAQKDSLADPELRELVDWMYDMKGEDFDPDAFDVEEANERLAYIRL	not soluble
MNPISRVAIIGECMVELKKHDGVLQQGFGGDTLNTAVYLSRLTKQHGVETSYVTGLGHDPFSREMLTAWREEGINTDMVYLSEDKLPGIYAIETAEDGERSFFYWRNDAAAKYWLRERALLSLVKDLCQHQMIYLSGISLAIISDDCRQMLIELLTMCRKEGVKIAFDNNFRPKLWPNIEQARDFYSKILSVTDMAFLTFDDEVMLWGDKHE	not soluble
MNPLEAVEHQGGLQLSTPPYEIAVDQKCYWRNQPIGLTLQGHNESIWFKGFVIQPFKWNNDQLGERFGQLVRLDDNGSWQQQCFRYQVSATHSHDEKKKHIKMWWKVDDEVDTVQFVATVVKHQTQFWVKSVRSRPLPPCRLNRDGFPNYQAPVPQIPPQVKQFKMETFKVFDSIVRRRPFNH	not soluble
MNPLKAGDIAPKFSLPDQDGEQVNLTDFQGQRVLVYFYPKAMTPGCTVQACGLRDNMDELKKAGVDVLGISTDKPEKLSRFAEKELLNFTLLSDENHQVCEQFGVWGEKSFMGKTYDGIHRISFLIDADGKIEHVFNDFKTSNHHDVVLNWLKENA	not soluble
MNQAWQSQLPLSHIKNIVPVSGGDVNDAFRIETDQEDYFLLVQRKRKSTFFDAEIAGLNLFEKVGITAPRVIDSGEIEDDAYLLLTYLDEGVSGSQEALGQLVARMHSEQQADNQFGFDLPYEGGDISFDNSWTNSWITLFVEKRLDKLKDRLVQQGLWGDADVTQYQAVRRVIVNELESHNSKPSLLHGDLWGGNYMFLTDGSPALFDPAPLYGDREFDIGITSVFGGFTQAFYDAYHKHYPLSEGADVRLEFYRLYLLMVHLVKFGEMYAGSVDRSMQKILNQLEHHHHHH	soluble
MNQIDTGLVKRLIREQFPEWAHLEVKPVKFSGHDNRTFQLGDKMSVRLPSDAAYTPQVEKENKWLPILSKELSLPISTPIAKGNPSEAYPWPWSINKWIEGETVTKQNVRDLSEFAAHLGSFLVELQSIDASKGPIAGAHNFYRGGLISVYDEEARDAIENNKDVFDETVLKHLWDLALQSTWRRKPVWIHGDVAPGNLLVKDGKLCAVIDFGILGVGDPACDAAMSWTFFDKSSRKIFKEVLQIDEETWNRARGWALWKALITYDANKISNKIVAEESYRVIQVIVNDYGR	not soluble
MNQTKLNQRLKQQQLFDIYGELLTKRQACYFNEYINLDLSMQEIADKYQVKKSSIHQHIKTCNLIFNRFEAKLQLFKKQQLRLKLYEKITDPQLREQLIKLR	soluble

— the DeepSol protein solubility set
